This is an account of results in PMC5499575 (Nucleic Acids Research, 2017).

The target of this experiment is T1, HDA15-GST (Arabidopsis, UniProt Q8GXJ1 1-552).
T1 sequence (looked up): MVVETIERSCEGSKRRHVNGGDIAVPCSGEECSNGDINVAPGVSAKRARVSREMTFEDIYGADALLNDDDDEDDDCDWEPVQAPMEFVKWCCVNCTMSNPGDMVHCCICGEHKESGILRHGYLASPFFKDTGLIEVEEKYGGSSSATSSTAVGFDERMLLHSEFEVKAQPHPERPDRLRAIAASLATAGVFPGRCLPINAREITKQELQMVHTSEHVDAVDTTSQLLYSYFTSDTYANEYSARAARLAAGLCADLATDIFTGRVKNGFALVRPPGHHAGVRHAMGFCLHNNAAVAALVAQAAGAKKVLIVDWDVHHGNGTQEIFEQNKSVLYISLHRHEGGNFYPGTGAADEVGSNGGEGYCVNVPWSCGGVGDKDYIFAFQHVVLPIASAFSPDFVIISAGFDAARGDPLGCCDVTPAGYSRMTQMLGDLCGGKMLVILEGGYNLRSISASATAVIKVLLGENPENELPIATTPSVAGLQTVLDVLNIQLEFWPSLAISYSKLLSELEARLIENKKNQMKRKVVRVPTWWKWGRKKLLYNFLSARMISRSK
Briefly: pull-down.

B1: PIF1-His (natural protein, Arabidopsis, UniProt Q8GZM7 1-478, looked up)
chain: MHHFVPDFDTDDDYVNNHNSSLNHLPRKSITTMGEDDDLMELLWQNGQVVVQNQRLHTKKPSSSPPKLLPSMDPQQQPSSDQNLFIQEDEMTSWLHYPLRDDDFCSDLLFSAAPTATATATVSQVTAARPPVSSTNESRPPVRNFMNFSRLRGDFNNGRGGESGPLLSKAVVRESTQVSPSATPSAAASESGLTRRTDGTDSSAVAGGGAYNRKGKAVAMTAPAIEITGTSSSVVSKSEIEPEKTNVDDRKRKEREATTTDETESRSEETKQARVSTTSTKRSRAAEVHNLSERKRRDRINERMKALQELIPRCNKSDKASMLDEAIEYMKSLQLQIQMMSMGCGMMPMMYPGMQQYMPHMAMGMGMNQPIPPPSFMPFPNMLAAQRPLPTQTHMAGSGPQYPVHASDPSRVFVPNQQYDPTSGQPQYPAGYTDPYQQFRGLHPTQPPQFQNQATSYPSSSRVSSSKESEDHGNHTTG
As to B1, the binding result is recorded as “binds”.
